# Assay: HIP extraction of dalargin into the organic phase (LC-MS and Edman sequencing)
# Format: physicochemical
# Details: docusate sodium in dichloromethane, peptide solution pH 3.05
# Experimental: A solution of the hexapeptide dalargin was prepared by dissolving 30-60 mg of the peptide into 3 ml of CaCl2 (18.3 mM) and lowering the pH to 3.05 by addition of concentrated HCl (2M). The resulting solution (500 μl, 10-20 mg/ml, and total amount of peptide 5-10 mg) was added to a solution of the HIP agent docusate sodium in dichloromethane (1 ml, 3.058-6.116% w/v) in a 2 ml eppendorf tube. The volume of HIP solution used was twice that of the peptide solution (1 ml HIP solution for 500 μl peptide solution). The molar ratio of HIP:peptide was 10:1 with 5 mg peptide and 5:1 with 10 mg peptide. The organic and aqueous phases were mixed by vortexing at maximum speed for 1 minute. The resulting suspension was then centrifuged to separate the two phases at 20,817 rcf for 50 minutes. The organic layer (containing solubilised peptide) was collected and used to prepare nanoparticles. In order to confirm that the process had been successful at solubilising the peptide into the organic phase, the amount of peptide remaining in the aqueous phase was determined.
substance,measurement,value
dalargin (YAGFLR; Humanised sequence of mus musculus and homo sapiens) [hexapeptide YAGFLR],Peptide extracted into the organic phase,at least 99%

# From patent US20110064819A1, “ENCAPSULATION OF BIOLOGICALLY ACTIVE AGENTS” (priority 2008, published 2011)
